Laboratory results taken from patent US5885797.
Blank lines part the entries; values can stand above or below the binder they belong to.

Target: E12

Relative CAT Activity (%), p4R-TK-CAT, NIH3T3: 93.8%
B1: I-mfc (protein)
chain: MSQVSGQCPSRCDAPHGVPSAALDPAQTMSLLPGLEVARSTHPVEASSEEGFPEEAAPSMPHDSGLRAQQALNSIDLDVPTEAVTCQPQGNPQGCTPLLPNGSSHDHLSEPGSAGHAGNGALGGSKAHRKLQTHPPQPPNRSAFRRVAWSPPRVTRNTASRAW

Relative CAT Activity (%), p4R-TK-CAT, NIH3T3: 98.7%
B2: I-mfb (protein)
chain: MSQVSGQCPSRCDAPHGVPSAALDPAQTMSLLPGLEVARSTHPVEASSEEGFPEEAAPSMPHDSGLRAQQALNSIDLDVPTEAVTCQPQGNPQGCTPLLPNGSSHDHLSEPGSAGHAGNGALGGSKAHRKLQTHPSLGSQAGRKSRGSARSASQVPLQAQEGKAPAVRIHRQTASPTCCLRNAQLSGTALRSLRLESQGHRELNNKTLSQSNNKKPGVAAHAAIIPALTRPKQNCHDPSLLPGTHGVGKEF

Relative CAT Activity (%), p4R-TK-CAT, NIH3T3: 76.3%
B3: I-mfa (protein)
chain: MSQVSGQCPSRCDAPHGVPSAALDPAQTMSLLPGLEVARSTHPVEASSEEGFPEEAAPSMPHDSGLRAQQALNSIDLDVPTEAVTCQPQGNPQGCTPLLPNGSSHDHLSEPGSAGHAGNGALGGSKAHRKLQTHPSLGSQAGRKSRGSARSASQVPLQAQEDCCVHCILSCLFCEFLTLCNILLDCATCGSCSSEDSCLCCCCCGSGECADCDLPCDLDCGIVDACCESADCLEICMECCGLCFSS
